Columns and labels:
[1] = test system: HeLa Kyoto; assay: thermal stability score vs G1/S (z-score of summed log2 fold changes over temperatures); higher = more thermally stable than in G1/S
[2] = test system: HeLa Kyoto; assay: solubility in G1/S (NP-40 vs SDS abundance) (log2 ratio); higher = more soluble; details: cell cycle stage: G1/S
[3] = test system: HeLa Kyoto; assay: solubility change mitosis vs G1/S (difference of NP-40 vs SDS log2 ratios) (log2 ratio difference); higher = more soluble in mitosis
[4] = test system: HeLa Kyoto; assay: melting temperature (median over replicates), in situ; higher = more thermally stable
[5] = cell cycle stage: early G1 (4.5 h after nocodazole release)
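Throughout, for melting temperature (median over replicates), in situ: HeLa Kyoto cells synchronized by double thymidine or nocodazole block, proteins quantified by TMT10plex mass spectrometry, three independent biological replicates.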
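Throughout, for solubility change mitosis vs G1/S (difference of NP-40 vs SDS log2 ratios): synchronized HeLa Kyoto cells (double thymidine block for G1/S, nocodazole release for mitosis), protein amounts in NP-40 versus SDS lysates quantified by mass spectrometry, three biological replicates.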
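Throughout, for solubility in G1/S (NP-40 vs SDS abundance): HeLa Kyoto cells arrested at G1/S by double thymidine block, proteins quantified by TMT10plex mass spectrometry in mild NP-40 versus SDS extracts, three biological replicates.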
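Throughout, for thermal stability score vs G1/S (z-score of summed log2 fold changes over temperatures): synchronized HeLa Kyoto cells, proteins quantified by TMT10plex mass spectrometry, three biological replicates, mitosis taken 0.5 h after nocodazole release, G1/S directly after double thymidine block.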

Substance	thermal stability score [1, 5]	thermal stability score ([1]; cell cycle stage: mitosis)	solubility in G1/S (log2) [2]	solubility change mitosis (log2) [3]	melting temperature ([4]; cell cycle stage: G1/S) [°C]	melting temperature ([4]; cell cycle stage: mitosis) [°C]
MSVEAYGPSSQTLTFLDTEEAELLGADTQGSEFEFTDFTLPSQTQTPPGGPGGPGGGGAGGPGGAGAGAAAGQLDAQVGPEGILQNGAVDDSVAKTSQLLAELNFEEDEEDTYYTKDLPIHACSYCGIHDPACVVYCNTSKKWFCNGRGNTSGSHIVNHLVRAKCKEVTLHKDGPLGETVLECYNCGCRNVFLLGFIPAKADSVVVLLCRQPCASQSSLKDINWDSSQWQPLIQDRCFLSWLVKIPSEQEQLRARQITAQQINKLEELWKENPSATLEDLEKPGVDEEPQHVLLRYEDAYQYQNIFGPLVKLEADYDKKLKESQTQDNITVRWDLGLNKKRIAYFTLPKTDSGNEDLVIIWLRDMRLMQGDEICLRYKGDLAPLWKGIGHVIKVPDNYGDEIAIELRSSVGAPVEVTHNFQVDFVWKSTSFDRMQSALKTFAVDETSVSGYIYHKLLGHEVEDVIIKCQLPKRFTAQGLPDLNHSQVYAVKTVLQRPLSLIQGPPGTGKTVTSATIVYHLARQGNGPVLVCAPSNIAVDQLTEKIHQTGLKVVRLCAKSREAIDSPVSFLALHNQIRNMDSMPELQKLQQLKDETGELSSADEKRYRALKRTAERELLMNADVICCTCVGAGDPRLAKMQFRSILIDESTQATEPECMVPVVLGAKQLILVGDHCQLGPVVMCKKAAKAGLSQSLFERLVVLGIRPIRLQVQYRMHPALSAFPSNIFYEGSLQNGVTAADRVKKGFDFQWPQPDKPMFFYVTQGQEEIASSGTSYLNRTEAANVEKITTKLLKAGAKPDQIGIITPYEGQRSYLVQYMQFSGSLHTKLYQEVEIASVDAFQGREKDFIILSCVRANEHQGIGFLNDPRRLNVALTRARYGVIIVGNPKALSKQPLWNHLLNYYKEQKVLVEGPLNNLRESLMQFSKPRKLVNTINPGARFMTTAMYDAREAIIPGSVYDRSSQGRPSSMYFQTHDQIGMISAGPSHVAAMNIPIPFNLVMPPMPPPGYFGQANGPAAGRGTPKGKTGRGGRQKNRFGLPGPSQTNLPNSQASQDVASQPFSQGALTQGYISMSQPSQMSQPGLSQPELSQDSYLGDEFKSQIDVALSQDSTYQGERAYQHGGVTGLSQY [UPF1]	-3.14	-8.04	0.0497	-0.0177	54.3	52.3
MTSGATRYRLSCSLRGHELDVRGLVCCAYPPGAFVSVSRDRTTRLWAPDSPNRSFTEMHCMSGHSNFVSCVCIIPSSDIYPHGLIATGGNDHNICIFSLDSPMPLYILKGHKNTVCSLSSGKFGTLLSGSWDTTAKVWLNDKCMMTLQGHTAAVWAVKILPEQGLMLTGSADKTVKLWKAGRCERTFSGHEDCVRGLAILSETEFLSCANDASIRRWQITGECLEVYYGHTNYIYSISVFPNCRDFVTTAEDRSLRIWKHGECAQTIRLPAQSIWCCCVLDNGDIVVGASDGIIRVFTESEDRTASAEEIKAFEKELSHATIDSKTGDLGDINAEQLPGREHLNEPGTREGQTRLIRDGEKVEAYQWSVSEGRWIKIGDVVGSSGANQQTSGKVLYEGKEFDYVFSIDVNEGGPSYKLPYNTSDDPWLTAYNFLQKNDLNPMFLDQVAKFIIDNTKGQMLGLGNPSFSDPFTGGGRYVPGSSGSSNTLPTADPFTGAGRYVPGSASMGTTMAGVDPFTGNSAYRSAASKTMNIYFPKKEAVTFDQANPTQILGKLKELNGTAPEEKKLTEDDLILLEKILSLICNSSSEKPTVQQLQILWKAINCPEDIVFPALDILRLSIKHPSVNENFCNEKEGAQFSSHLINLLNPKGKPANQLLALRTFCNCFVGQAGQKLMMSQRESLMSHAIELKSGSNKNIHIALATLALNYSVCFHKDHNIEGKAQCLSLISTILEVVQDLEATFRLLVALGTLISDDSNAVQLAKSLGVDSQIKKYSSVSEPAKVSECCRFILNLL [PLAA]	1.32	1.3	-0.0389	-0.198	49.5	50
MGTQKVTPALIFAITVATIGSFQFGYNTGVINAPEKIIKEFINKTLTDKGNAPPSEVLLTSLWSLSVAIFSVGGMIGSFSVGLFVNRFGRRNSMLIVNLLAVTGGCFMGLCKVAKSVEMLILGRLVIGLFCGLCTGFVPMYIGEISPTALRGAFGTLNQLGIVVGILVAQIFGLEFILGSEELWPLLLGFTILPAILQSAALPFCPESPRFLLINRKEEENAKQILQRLWGTQDVSQDIQEMKDESARMSQEKQVTVLELFRVSSYRQPIIISIVLQLSQQLSGINAVFYYSTGIFKDAGVQEPIYATIGAGVVNTIFTVVSLFLVERAGRRTLHMIGLGGMAFCSTLMTVSLLLKDNYNGMSFVCIGAILVFVAFFEIGPGPIPWFIVAELFSQGPRPAAMAVAGCSNWTSNFLVGLLFPSAAHYLGAYVFIIFTGFLITFLAFTFFKVPETRGRTFEDITRAFEGQAHGADRSGKDGVMEMNSIEPAKETTTNV [SLC2A3]	-2.61	-5.18	-0.0807	-0.0464	62.7	59.1
MAVESRVTQEEIKKEPEKPIDREKTCPLLLRVFTTNNGRHHRMDEFSRGNVPSSELQIYTWMDATLKELTSLVKEVYPEARKKGTHFNFAIVFTDVKRPGYRVKEIGSTMSGRKGTDDSMTLQSQKFQIGDYLDIAITPPNRAPPPSGRMRPY [SAP18]	0.467	3.26	-0.67	0.699	47.5	49.7
MACLLETPIRMSVLSEVTASSRHYVDRLFDPDPQKVLQGVIDMKNAVIGNNKQKANLIVLGAVPRLLYLLQQETSSTELKTECAVVLGSLAMGTENNVKSLLDCHIIPALLQGLLSPDLKFIEACLRCLRTIFTSPVTPEELLYTDATVIPHLMALLSRSRYTQEYICQIFSHCCKGPDHQTILFNHGAVQNIAHLLTSLSYKVRMQALKCFSVLAFENPQVSMTLVNVLVDGELLPQIFVKMLQRDKPIEMQLTSAKCLTYMCRAGAIRTDDNCIVLKTLPCLVRMCSKERLLEERVEGAETLAYLIEPDVELQRIASITDHLIAMLADYFKYPSSVSAITDIKRLDHDLKHAHELRQAAFKLYASLGANDEDIRKKIIETENMMDRIVTGLSESSVKVRLAAVRCLHSLSRSVQQLRTSFQDHAVWKPLMKVLQNAPDEILVVASSMLCNLLLEFSPSKEPILESGAVELLCGLTQSENPALRVNGIWALMNMAFQAEQKIKADILRSLSTEQLFRLLSDSDLNVLMKTLGLLRNLLSTRPHIDKIMSTHGKQIMQAVTLILEGEHNIEVKEQTLCILANIADGTTAKDLIMTNDDILQKIKYYMGHSHVKLQLAAMFCISNLIWNEEEGSQERQDKLRDMGIVDILHKLSQSPDSNLCDKAKMALQQYLA [ARMC8]	-0.497	0.122	-0.0698	-0.195	51.1	51
MAEPTVCSFLTKVLCAHGGRMFLKDLRGHVELSEARLRDVLQRAGPERFLLQEVETQEGLGDAEAEAAAGAVGGGGTSAWRVVAVSSVRLCARYQRGECQACDQLHFCRRHMLGKCPNRDCWSTCTLSHDIHTPVNMQVLKSHGLFGLNENQLRILLLQNDPCLLPEVCLLYNKGEALYGYCNLKDKCNKFHVCKSFVKGECKLQTCKRSHQLIHAASLKLLQDQGLNIPSVVNFQIISTYKHMKLHKMLENTDNSSPSTEHSQGLEKQGVHAAGAAEAGPLASVPAQSAKKPCPVSCEK [ZC3HAV1L]	0.166	-0.0104	0.135	-0.0672	50.2	50.2
ATM	0.333	0.0333	-0.339	-0.141	51.7	51.3
MAAASPLRDCQAWKDARLPLSTTSNEACKLFDATLTQYVKWTNDKSLGGIEGCLSKLKAADPTFVMGHAMATGLVLIGTGSSVKLDKELDLAVKTMVEISRTQPLTRREQLHVSAVETFANGNFPKACELWEQILQDHPTDMLALKFSHDAYFYLGYQEQMRDSVARIYPFWTPDIPLSSYVKGIYSFGLMETNFYDQAEKLAKEALSINPTDAWSVHTVAHIHEMKAEIKDGLEFMQHSETFWKDSDMLACHNYWHWALYLIEKGEYEAALTIYDTHILPSLQANDAMLDVVDSCSMLYRLQMEGVSVGQRWQDVLPVARKHSRDHILLFNDAHFLMASLGAHDPQTTQELLTTLRDASESPGENCQHLLARDVGLPLCQALVEAEDGNPDRVLELLLPIRYRIVQLGGSNAQRDVFNQLLIHAALNCTSSVHKNVARSLLMERDALKPNSPLTERLIRKAATVHLMQ [TTC38]	-0.435	-0.408	0.319	-0.0718	53.1	53.1
MSCESSMVLGYWDIRGLAHAIRLLLEFTDTSYEEKRYTCGEAPDYDRSQWLDVKFKLDLDFPNLPYLLDGKNKITQSNAILRYIARKHNMCGETEEEKIRVDIIENQVMDFRTQLIRLCYSSDHEKLKPQYLEELPGQLKQFSMFLGKFSWFAGEKLTFVDFLTYDILDQNRIFDPKCLDEFPNLKAFMCRFEALEKIAAYLQSDQFCKMPINNKMAQWGNKPVC [GSTM3]	1.24	3.37	0.0979	-0.117	47.9	48.3
MDSRYNSTAGIGDLNQLSAAIPATRVEVSVSCRNLLDRDTFSKSDPICVLYVQGVGNKEWREFGRTEVIDNTLNPDFVRKFILDYFFEERENLRFDLYDVDSKSPNLSKHDFLGQVFCTLGEIVGSQGSRLEKPIVGIPGKKCGTIILTAEELNCCRDAVLMQFCANKLDKKDFFGKSDPFLVFYRSNEDGSFTICHKTEVVKNTLNPVWQAFKISVRALCNGDYDRTIKVEVYDWDRDGSHDFIGEFTTSYRELSRGQSQFNVYEVVNPKKKGKKKKYTNSGTVTLLSFLVETEVSFLDYIKGGTQINFTVAIDFTASNGNPAQPTSLHYMNPYQLNAYGMALKAVGEIVQDYDSDKMFPALGFGAKLPPDGRISHEFALNGNPQNPYCDGIEGVMEAYYRSLKSVQLYGPTNFAPVINHVARYASSVKDGSQYFVLLIVTDGVISDMAQTKESIVNASKLPMSIIIVGVGPAEFDAMVELDGDDVRVSSRGKYAERDIVQFVPFRDYIDRSGNHILSMARLAKDVLAEIPEQFLSYMRARGIKPSPAPPPYTPPTHVLQTQI [CPNE8]	1.74	5.6	-1.4	-0.135	54.1	53
MAVVPASLSGQDVGSFAYLTIKDRIPQILTKVIDTLHRHKSEFFEKHGEEGVEAEKKAISLLSKLRNELQTDKPFIPLVEKFVDTDIWNQYLEYQQSLLNESDGKSRWFYSPWLLVECYMYRRIHEAIIQSPPIDYFDVFKESKEQNFYGSQESIIALCTHLQQLIRTIEDLDENQLKDEFFKLLQISLWGNKCDLSLSGGESSSQNTNVLNSLEDLKPFILLNDMEHLWSLLSNCKKTREKASATRVYIVLDNSGFELVTDLILADFLLSSELATEVHFYGKTIPWFVSDTTIHDFNWLIEQVKHSNHKWMSKCGADWEEYIKMGKWVYHNHIFWTLPHEYCAMPQVAPDLYAELQKAHLILFKGDLNYRKLTGDRKWEFSVPFHQALNGFHPAPLCTIRTLKAEIQVGLQPGQGEQLLASEPSWWTTGKYGIFQYDGPL [ARMT1]	1.02	1.91	0.0146	-0.15	49.6	49
MSAFSEAALEKKLSELSNSQQSVQTLSLWLIHHRKHSRPIVTVWERELRKAKPNRKLTFLYLANDVIQNSKRKGPEFTKDFAPVIVEAFKHVSSETDESCKKHLGRVLSIWEERSVYENDVLEQLKQALYGDKKPRKRTYEQIKVDENENCSSLGSPSEPPQTLDLVRALQDLENAASGDAAVHQRIASLPVEVQEVSLLDKITDKESGERLSKMVEDACMLLADYNGRLAAEIDDRKQLTRMLADFLRCQKEALAEKEHKLEEYKRKLARVSLVRKELRSRIQSLPDLSRLPNVTGSHMHLPFAGDIYSED [RPRD1A]	1.27	1.64	0.66	-0.0443	48	49.5

— the supplement of paper PMC5998384
